According to the supplement of paper PMC10724198:
± gives the standard deviation of the averaged measurements.

system: Saccharomyces cerevisiae; experiment: protein stability index of tFT-peptide fusion (C-terminal peptide) (PSI (0-1 scale)); higher = more stable (slower turnover); conditions: genetic background: wild type; temperature: 30 C
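Further: PSI is a weighted mean of sequencing reads over stability bins, variants kept only with over 10 reads, mCherry proximal and sfGFP distal, peptide attached via GGGS linker.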

Sequence	protein stability index
TKWYDSSKKTNK	0.688 ± 0.075
TLDGEAILVIYI	0.5944 ± 0.0051
TLENEKKKKRNT	0.704 ± 0.084
TLGGRPFQGTPA	0.698 ± 0.016
TLGYLPLRSLKI	0.641 ± 0.046
TLIPPLLRNALP	0.713 ± 0.0066
TLMLVTGLSTEV	0.662 ± 0.01
TLPARTIHTTGH	0.717 ± 0.028
TLPPPRPSPSSP	0.689 ± 0.035
TLPSRSPAPLPH	0.643 ± 0.021
TLRRPMQVPLGH	0.633 ± 0.04
TLSLGCVDSHGV	0.696 ± 0.036
TLTHKSVRLVVK	0.57119 ± 0.00034
TLVNPFYRRFNL	0.739 ± 0.03
TLVSCRLVPSSR	0.671 ± 0.056
TMFTISGWPLFG	0.633 ± 0.044
TMTGSGRGEKWE	0.733 ± 0.1
TNGPSVWYFLVL	0.575 ± 0.052
TNNKKTRNHTSK	0.704 ± 0.03
TNSGLGTGRRSA	0.768 ± 0.02
TNSPTVSGCLQQ	0.716 ± 0.07
TNSYRTSVRGER	0.795 ± 0.013
TNTPVYRQAPQM	0.657 ± 0.02
TPFLRGTDKTTP	0.662 ± 0.068
TPLSDQLVPFGC	0.708 ± 0.082
TPPALPPPSPPA	0.68516 ± 0.00038

Sequence	protein stability index
TPPATFCVPPPH	0.719 ± 0.053
TPPLARPSPTAL	0.534 ± 0.12
TPPPLPSPAPRP	0.715 ± 0.062
TPPPSPPQPLPP	0.642 ± 0.043
TPPVPPHPRSLL	0.774 ± 0.11
TPQLSYYKGNNL	0.639 ± 0.013
TPRPPPLPPRPP	0.603 ± 0.029
TPRPPQPGLSRT	0.67 ± 0.027
TPRRPPATPAPC	0.653 ± 0.025
TPSSPSARHPPP	0.715 ± 0.036
TPTDPLSLYAFP	0.69 ± 0.013
TPTSLRLSSLSP	0.648 ± 0.036
TPVLATAPQGQS	0.71 ± 0.063
TPWQTREVTRAR	0.691 ± 0.057
TQGPTAPADPCS	0.67049 ± 0.00033
TQSEHRTIPKSG	0.663 ± 0.0089
TQTLLQRTYREG	0.722 ± 0.09
TRCLPPPVPPSL	0.729 ± 0.014
TRDVLWHCWVLS	0.514 ± 0.08
TRGAPHHSSGRG	0.693 ± 0.033
TRLLAWGVVGLF	0.633 ± 0.086
TRPHASPPPPPP	0.695 ± 0.024
TRPIGSPPSPAK	0.702 ± 0.017
TRRPTPPSRASL	0.718 ± 0.049
TRSLPPELTPRR	0.705 ± 0.021
TRSTKIVVEGSG	0.736 ± 0.085

Sequence	protein stability index
TRVAYINRGETR	0.78 ± 0.2
TRVKRQFRRGGI	0.686 ± 0.011
TRYRQKRMSITT	0.581 ± 0.014
TSASLFPLGPFR	0.666 ± 0.02
TSCIVVRGGRNG	0.6453 ± 0.0041
TSDVGWVPAGSE	0.656 ± 0.043
TSETLLTLSTLT	0.669 ± 0.04
TSHMKASANDTL	0.687 ± 0.11
TSLFVAGRVWRS	0.703 ± 0.014
TSLGSFLCGMCR	0.6506 ± 0.0046
TSLYGRDEETKV	0.599 ± 0.077
TSNRLDVDFPLS	0.699 ± 0.0087
TSPAPYPRPPPT	0.723 ± 0.036
TSPRILLPLNAT	0.694 ± 0.014
TSRKNRVKASVP	0.739 ± 0.039
TSRSPLVAPNPS	0.738 ± 0.083
TSSTPNALARIP	0.71 ± 0.16
TSWLHTCMKCSL	0.728 ± 0.017
TSYRNNKAKNQS	0.756 ± 0.01
TTGKEAQYEARK	0.664 ± 0.071
TTPYVRTSPRKP	0.654 ± 0.0091
TTQTYAPLTPHR	0.64 ± 0.097
TTSKQHRPKQMN	0.708 ± 0.23
TVAVCPKIDYSV	0.667 ± 0.0085
TVGKGCGGAEGG	0.6439 ± 0.0029
TVGRILEVSRRG	0.66 ± 0.025

Sequence	protein stability index
TVILQRNPKIIV	0.652 ± 0.058
TVLHLCMMTFLI	0.576 ± 0.0084
TVLPAPYRSLYR	0.714 ± 0.1
TVNIIREEKAGG	0.68 ± 0.031
TVVTIGAHIGPR	0.78 ± 0.048
TVWCRLKGEGRS	0.737 ± 0.084
TWARRAHALRCR	0.493 ± 0.015
TWIRIEQKTEVR	0.631 ± 0.017
TWQWGAFNRIKG	0.68 ± 0.13
TWSLLHDTQTWD	0.78 ± 0.068
TWSSLVSAVRRN	0.701 ± 0.079
TYACRQEWRESR	0.731 ± 0.041
TYFIVGGCGFFG	0.643 ± 0.06
TYRLSHFFKILP	0.566 ± 0.013
TYSPPSPTPPAR	0.656 ± 0.055
TYSTLHILLSSS	0.602 ± 0.014
TYTCRQVSCNAL	0.681 ± 0.012
VAAFGGGGTNGV	0.665 ± 0.075
VADGEAGPLFKI	0.644 ± 0.069
VAFLSSADLLPP	0.676 ± 0.056
VAGAVGSAQFER	0.649 ± 0.13
VAGFYCQKWFSI	0.657 ± 0.08
VAGGGVAMVGSA	0.619 ± 0.069
